Experimental data reported in publication PMC5092059.

Legend:
3H-gabapentin = 3H-gabapentin radioligand saturation binding; settings: DRM fractions from transfected tsA-201 cells; n = 4
[1] = biological target: GFP-CaV2.2 (rabbit CaV2.2 with an N-terminal GFP) (rabbit) (UniProt Q05152)
UniProt Q05152, sequence (Q05152 whole entry): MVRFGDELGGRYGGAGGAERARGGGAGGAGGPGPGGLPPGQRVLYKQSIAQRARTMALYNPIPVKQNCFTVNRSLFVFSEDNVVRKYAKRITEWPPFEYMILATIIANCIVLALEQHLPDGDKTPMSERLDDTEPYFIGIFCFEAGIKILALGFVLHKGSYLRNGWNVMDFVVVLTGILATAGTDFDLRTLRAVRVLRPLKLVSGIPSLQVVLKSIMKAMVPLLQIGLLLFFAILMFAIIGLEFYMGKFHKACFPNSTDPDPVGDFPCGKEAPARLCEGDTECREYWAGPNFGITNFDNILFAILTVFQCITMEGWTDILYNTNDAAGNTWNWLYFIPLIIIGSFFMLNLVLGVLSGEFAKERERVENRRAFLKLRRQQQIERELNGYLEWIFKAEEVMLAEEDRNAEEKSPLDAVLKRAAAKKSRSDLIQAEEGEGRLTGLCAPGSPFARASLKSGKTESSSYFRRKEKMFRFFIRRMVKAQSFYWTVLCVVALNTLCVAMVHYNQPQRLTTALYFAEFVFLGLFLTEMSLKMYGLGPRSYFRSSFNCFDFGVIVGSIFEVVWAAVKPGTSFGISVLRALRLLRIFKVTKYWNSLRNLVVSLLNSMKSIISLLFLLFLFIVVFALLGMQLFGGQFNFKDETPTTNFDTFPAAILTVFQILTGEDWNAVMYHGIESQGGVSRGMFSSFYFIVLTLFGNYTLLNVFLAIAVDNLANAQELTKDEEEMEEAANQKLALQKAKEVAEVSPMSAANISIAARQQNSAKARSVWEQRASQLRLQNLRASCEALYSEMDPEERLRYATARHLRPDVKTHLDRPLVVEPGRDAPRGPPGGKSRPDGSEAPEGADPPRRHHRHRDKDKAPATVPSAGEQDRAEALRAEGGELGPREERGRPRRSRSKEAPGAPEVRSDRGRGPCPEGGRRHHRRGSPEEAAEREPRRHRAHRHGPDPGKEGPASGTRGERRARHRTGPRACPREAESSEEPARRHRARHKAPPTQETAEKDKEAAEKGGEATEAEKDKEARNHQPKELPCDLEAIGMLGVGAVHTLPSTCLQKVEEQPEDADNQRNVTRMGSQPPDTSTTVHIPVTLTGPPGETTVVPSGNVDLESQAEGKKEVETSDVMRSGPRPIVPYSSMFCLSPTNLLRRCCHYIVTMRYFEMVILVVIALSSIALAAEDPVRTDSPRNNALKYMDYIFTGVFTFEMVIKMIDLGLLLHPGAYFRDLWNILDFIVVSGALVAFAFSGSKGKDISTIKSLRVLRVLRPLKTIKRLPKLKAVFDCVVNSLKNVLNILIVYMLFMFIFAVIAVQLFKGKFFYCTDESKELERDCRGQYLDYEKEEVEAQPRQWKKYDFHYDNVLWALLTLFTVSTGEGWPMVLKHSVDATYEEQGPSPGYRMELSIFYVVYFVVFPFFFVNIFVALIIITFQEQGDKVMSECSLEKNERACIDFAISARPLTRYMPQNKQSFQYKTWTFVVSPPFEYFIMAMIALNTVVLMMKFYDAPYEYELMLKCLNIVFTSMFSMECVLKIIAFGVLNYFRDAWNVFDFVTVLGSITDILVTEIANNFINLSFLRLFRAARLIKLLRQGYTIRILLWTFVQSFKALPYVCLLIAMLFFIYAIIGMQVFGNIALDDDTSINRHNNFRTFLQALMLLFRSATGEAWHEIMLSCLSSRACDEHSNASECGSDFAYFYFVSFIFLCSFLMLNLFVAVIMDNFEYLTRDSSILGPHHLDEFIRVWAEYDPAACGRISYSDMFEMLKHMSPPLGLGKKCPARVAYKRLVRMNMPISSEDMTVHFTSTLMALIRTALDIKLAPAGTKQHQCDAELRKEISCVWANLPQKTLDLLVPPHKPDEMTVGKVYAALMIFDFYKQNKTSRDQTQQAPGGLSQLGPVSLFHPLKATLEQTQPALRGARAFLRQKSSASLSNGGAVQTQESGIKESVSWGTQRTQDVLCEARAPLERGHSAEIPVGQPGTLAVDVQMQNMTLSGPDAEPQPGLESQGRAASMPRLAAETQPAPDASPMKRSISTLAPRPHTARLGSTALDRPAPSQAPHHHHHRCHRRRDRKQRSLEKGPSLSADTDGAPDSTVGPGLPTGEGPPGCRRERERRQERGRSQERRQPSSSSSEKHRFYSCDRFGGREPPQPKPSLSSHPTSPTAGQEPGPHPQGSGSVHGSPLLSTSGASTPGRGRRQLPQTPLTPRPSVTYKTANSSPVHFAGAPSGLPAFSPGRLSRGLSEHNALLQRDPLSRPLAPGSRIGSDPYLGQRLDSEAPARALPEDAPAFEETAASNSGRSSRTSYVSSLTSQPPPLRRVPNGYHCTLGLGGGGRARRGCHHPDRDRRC

Substance	Kd (3H-gabapentin)	decrease in α2δ-1 immunostaining in hippocampal neurites after co-transfection with CaV2.2-HA/β1b, α2(3C)δ-1 relative to WT α2δ-1 [1]
wild type α2δ-1 (rat) (from UniProt P54290) LEAVEM replaced by VVVVVV (hexavaline, V6)	68.3 nM	
α2(3C)δ-1 (rat α2δ-1 with the endogenous cleavage motif replaced by a Human Rhinovirus 3C-protease site) (natural protein)		37%
